Reference: patent US20200199213A1 (Eli Lilly, published 2020)

T1: human ANGPTL8 (human, UniProt Q6UXH0 22-198)
T1 construct: Biotinylated in the ELISA assays; also called hANGPTL8; free ANGPTL8
T1 sequence: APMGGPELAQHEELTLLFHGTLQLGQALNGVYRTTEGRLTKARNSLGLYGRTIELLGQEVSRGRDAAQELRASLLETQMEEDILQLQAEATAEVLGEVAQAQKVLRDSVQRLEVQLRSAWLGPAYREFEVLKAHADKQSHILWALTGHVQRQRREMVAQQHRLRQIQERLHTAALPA

T2: human ANGPTL3 (human, UniProt Q9Y5C1 17-460)
T2 construct: Biotinylated in the ELISA assays; also called hANGPTL3; free ANGPTL3
T2 sequence: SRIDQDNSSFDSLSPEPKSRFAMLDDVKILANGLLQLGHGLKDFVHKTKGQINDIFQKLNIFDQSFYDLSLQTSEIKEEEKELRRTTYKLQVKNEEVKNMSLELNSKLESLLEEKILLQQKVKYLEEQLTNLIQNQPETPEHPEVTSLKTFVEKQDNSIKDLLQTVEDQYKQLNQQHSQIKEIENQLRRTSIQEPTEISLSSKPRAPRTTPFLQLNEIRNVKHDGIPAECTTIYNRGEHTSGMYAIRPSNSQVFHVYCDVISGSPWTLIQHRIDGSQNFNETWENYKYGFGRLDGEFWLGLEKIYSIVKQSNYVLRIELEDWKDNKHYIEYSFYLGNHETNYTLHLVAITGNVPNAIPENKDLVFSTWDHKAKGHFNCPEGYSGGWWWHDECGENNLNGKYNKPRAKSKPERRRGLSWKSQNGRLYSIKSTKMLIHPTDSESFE

T3: human ANGPTL3/8 complex (human, UniProt Q9Y5C1 17-460; Q6UXH0 22-198, limits assumed)
T3 construct: also called hANGPTL3/8 complex; ANGTPL3/8 complex
T3 sequence 1: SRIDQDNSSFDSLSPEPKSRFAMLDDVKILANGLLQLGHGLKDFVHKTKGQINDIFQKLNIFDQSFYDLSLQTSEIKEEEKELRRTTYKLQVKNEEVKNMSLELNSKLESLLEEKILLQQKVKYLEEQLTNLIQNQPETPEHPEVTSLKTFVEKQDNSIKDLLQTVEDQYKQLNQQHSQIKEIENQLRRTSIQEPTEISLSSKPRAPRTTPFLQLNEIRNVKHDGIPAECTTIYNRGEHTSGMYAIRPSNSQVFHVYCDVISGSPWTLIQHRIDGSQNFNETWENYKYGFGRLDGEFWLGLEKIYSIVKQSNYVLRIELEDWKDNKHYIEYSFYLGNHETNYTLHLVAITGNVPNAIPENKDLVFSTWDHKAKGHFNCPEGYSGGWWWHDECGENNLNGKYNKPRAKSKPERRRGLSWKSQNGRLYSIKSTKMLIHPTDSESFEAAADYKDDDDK
T3 sequence 2: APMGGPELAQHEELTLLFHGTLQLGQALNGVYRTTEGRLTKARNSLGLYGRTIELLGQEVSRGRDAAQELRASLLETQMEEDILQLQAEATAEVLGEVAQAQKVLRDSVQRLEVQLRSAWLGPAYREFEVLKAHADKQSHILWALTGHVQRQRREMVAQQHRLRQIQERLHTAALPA


How the values were obtained:
human ANGPTL8 [1] = biological target: T1, human ANGPTL8; assay: single point ELISA
Protocol: (§1) Single Point ELISA (SPE) Assay: Ab binding selectivity to either the ANGPTL3/8 complex, free ANGPTL3 or free ANGPTL8 is initially verified using standard ELISA assays in a single point format. […] IgG secreted into supernatants after expression in CHO cells are then captured to the assay plate. Biotinylated antigen is added at a concentration of 25 nM to allow for Ab/antigen binding. Ab/antigen complexes are detected after adding alkaline phosphatase-conjugated neutravidin and alkaline phosphatase substrate, and subsequent measurement of the optical density at 560 nm. Positive binding is determined by a signal greater than 3 fold over the non-binding background signal.

human ANGPTL3 [2] = biological target: T2, human ANGPTL3; assay: single point ELISA
Protocol: as §1

human ANGPTL3/8 complex [3] = biological target: T3, human ANGPTL3/8 complex; assay: ELISA; Ab captured by anti-human Fc; biotinylated antigen at 1.23 nM
Protocol: (§2) ELISA Assay: Ab binding selectivity to either the ANGPTL3/8 complex, free ANGPTL3 or free ANGPTL8 is verified using standard ELISA assays. […] Ab from CHO supernatants after expression in CHO cells is then captured to the assay plate and results is an Ab concentration of 2 μg/ml. Biotinylated antigen (ANGPTL3, ANGPTL8 or ANGPTL3/8 complex) is added at varying concentrations by serial dilution to allow for Ab/antigen binding. Ab/antigen complexes are detected after the addition of alkaline phosphatase-conjugated neutravidin, and alkaline phosphatase substrate, and subsequent measurement of the optical density at 560 nm.

human ANGPTL8 [4] = biological target: T1, human ANGPTL8; assay: as above
Protocol: as §2

human ANGPTL3/8 complex [5] = biological target: T3, human ANGPTL3/8 complex; assay: ELISA; Ab captured by anti-human Fc; biotinylated antigen at 0.412 nM
Protocol: as §2

human ANGPTL8 [6] = biological target: T1, human ANGPTL8; assay: as above
Protocol: as §2

human ANGPTL3 [7] = biological target: T2, human ANGPTL3; assay: as above
Protocol: as §2

human ANGPTL8 [8] = biological target: T1, human ANGPTL8; assay: ELISA, antigen titration
Protocol: as §2

human ANGPTL3 [9] = biological target: T2, human ANGPTL3; assay: ELISA, antigen titration
Protocol: as §2

Binder | binding result (human ANGPTL8 [1]) | binding result (human ANGPTL3 [2]) | OD at 560 nm (human ANGPTL3/8 complex [3]) [OD 560 nm] | OD at 560 nm (human ANGPTL8 [4]) [OD 560 nm] | OD at 560 nm (human ANGPTL3/8 complex [5]) [OD 560 nm] | OD at 560 nm (human ANGPTL8 [6]) [OD 560 nm] | OD at 560 nm (human ANGPTL3 [7]) [OD 560 nm] | binding result (human ANGPTL8 [8]) | binding result (human ANGPTL3 [9])
anti-ANGPTL3/8 complex Ab having a LC of SEQ ID NO:5 and a HC of SEQ ID NO:6 (antibody, human IgG4 S228P, kappa, F234A L235A, V domains shown, In the ELISA assays tested as IgG from CHO supernatants; also called the Ab) VH: QVTLKESGPTLVKPTQTLTLTCTFSGFSLSISGVGVGWIRQPPGKALEWLALIYRNDDKRYSPSLKSRLTITKDTSKNQVVLTLTNMDPVDTATYYCARTYSSGWYGNWFDPWGQGTLVTVSS VL: DIVMTQTPLSLPVTPGEPASISCRSSQSLLDSDDGNTYLDWYLQKPGQSPQLLIYMLSYRASGVPDRFSGSGSGTDFTLKISRVEAEDVGIYYCMQRIEFPLTFGGGTKVEIKR | no binding | no binding | 0.51 | 0.043 | 0.231 | 0.046 | 0.043 | – | –
Ab with LC variant having a E99Q mutation (SEQ ID NO:25) and a HC of SEQ ID NO:6 (antibody, human IgG4 S228P, kappa, F234A L235A, V domains shown, also called E99Q Variant Ab; E99Q Ab) VH: QVTLKESGPTLVKPTQTLTLTCTFSGFSLSISGVGVGWIRQPPGKALEWLALIYRNDDKRYSPSLKSRLTITKDTSKNQVVLTLTNMDPVDTATYYCARTYSSGWYGNWFDPWGQGTLVTVSS VL: DIVMTQTPLSLPVTPGEPASISCRSSQSLLDSDDGNTYLDWYLQKPGQSPQLLIYMLSYRASGVPDRFSGSGSGTDFTLKISRVEAEDVGIYYCMQRIQFPLTFGGGTKVEIKR | no binding | no binding | 0.575 | 0.058 | 0.234 | 0.062 | 0.058 | – | –
Ab with LC variant having a D33A mutation (SEQ ID NO:22) and a HC of SEQ ID NO:6 (antibody, human IgG4 S228P, kappa, F234A L235A, V domains shown, also called D33A Variant Ab; D33A Ab) VH: QVTLKESGPTLVKPTQTLTLTCTFSGFSLSISGVGVGWIRQPPGKALEWLALIYRNDDKRYSPSLKSRLTITKDTSKNQVVLTLTNMDPVDTATYYCARTYSSGWYGNWFDPWGQGTLVTVSS VL: DIVMTQTPLSLPVTPGEPASISCRSSQSLLDSADGNTYLDWYLQKPGQSPQLLIYMLSYRASGVPDRFSGSGSGTDFTLKISRVEAEDVGIYYCMQRIEFPLTFGGGTKVEIKR | – | – | 0.491 | 0.049 | 0.196 | 0.047 | 0.056 | no binding (tested: 100 nM antigen) | no binding (tested: 100 nM antigen)
Ab with LC variant having a D31S mutation (SEQ ID NO:21) and a HC of SEQ ID NO:6 (antibody, human IgG4 S228P, kappa, F234A L235A, V domains shown, also called D31S Variant Ab; D31S Ab) VH: QVTLKESGPTLVKPTQTLTLTCTFSGFSLSISGVGVGWIRQPPGKALEWLALIYRNDDKRYSPSLKSRLTITKDTSKNQVVLTLTNMDPVDTATYYCARTYSSGWYGNWFDPWGQGTLVTVSS VL: DIVMTQTPLSLPVTPGEPASISCRSSQSLLSSDDGNTYLDWYLQKPGQSPQLLIYMLSYRASGVPDRFSGSGSGTDFTLKISRVEAEDVGIYYCMQRIEFPLTFGGGTKVEIKR | – | – | 0.575 | 0.058 | 0.234 | 0.062 | 0.058 | no binding (tested: 100 nM antigen) | no binding (tested: 100 nM antigen)
